Data: article PMC11438860, “Human 8-oxoguanine glycosylase OGG1 binds nucleosome at the dsDNA ends and the super-helical locations”

Legend:
OGG1(K249Q) = OGG1(K249Q) (human, UniProt O15527 1-345, K249Q); test: cryo-EM; protein:DNA 1.5:1; 8-oxoG flipped out, DNA bent 65 degrees; 3.6 A; EMSA: 40 mM HEPES pH 7.4, 50 mM NaCl, 5 mM bME, 5% glycerol, 30 min on ice, 4-20% native gel; cryo-EM OGG1-DNA assembly: 20 mM HEPES pH 7.4, 100 mM NaCl, 5 mM bME, on ice; settings: protein: recombinant; tags: N-terminal 6His; blunt
full-length OGG1 (EMSA) = full-length OGG1 (EMSA) (human, UniProt O15527 1-345); test: EMSA; 2.5 uM DNA; all DNA shifted at 5 uM protein or above; two super-shift bands; EMSA: 40 mM HEPES pH 7.4, 50 mM NaCl, 5 mM bME, 5% glycerol, 30 min on ice, 4-20% native gel; cryo-EM OGG1-DNA assembly: 20 mM HEPES pH 7.4, 100 mM NaCl, 5 mM bME, on ice; settings: protein: recombinant; blunt
Sequence of full-length OGG1 (EMSA) (O15527 whole entry): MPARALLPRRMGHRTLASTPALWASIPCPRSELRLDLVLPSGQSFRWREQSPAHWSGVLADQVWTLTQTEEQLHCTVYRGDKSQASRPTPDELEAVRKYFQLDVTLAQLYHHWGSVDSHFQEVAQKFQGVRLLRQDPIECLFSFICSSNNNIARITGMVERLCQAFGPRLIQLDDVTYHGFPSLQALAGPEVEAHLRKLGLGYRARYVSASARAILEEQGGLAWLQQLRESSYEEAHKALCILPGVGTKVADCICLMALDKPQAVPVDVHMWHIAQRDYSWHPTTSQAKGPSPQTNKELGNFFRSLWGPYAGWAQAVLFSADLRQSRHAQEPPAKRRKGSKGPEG

Sequence of OGG1(K249Q) (O15527 whole entry K249Q): as the sequence (O15527 whole entry) above, with K249Q counted along it

B1: 35-bp 8-oxoG DNA (dsDNA)
DNA 1: ATGCCTCGCAGAATCCCGCTGCCGAGGCCGCTCAA
DNA 2: TTGAGCGGCCTCGGCAGCGGGATTCTGCGAGGCAT
modifications: 8-oxo-dG at position 18 of strand 1 (text numbers it 17), within unmethylated Cp-8-oxoG
B1: binds (OGG1(K249Q)); binds (full-length OGG1 (EMSA)).
